Data reported in US20230028110A1 (ADAPTATE BIOTHERAPEUTICS, published 2023).
Positions count from the first letter of the chain named.

B1: ADT1-7-20 (antibody, IgG1, V domains shown)
VH: EVQLVESGGGLVKPGGSLRLSCAASGFTFSDYYMSWIRQAPGKGLEWVSYISSSGSTIYYADSVKGRFTISRDNAKNSLYLQMNSLRAEDTAVYYCARVDYQEAFDIWGQGTLVTVSS
VL: DIQMTQSPSSLSASVGDRVTIACRAGQSIGTYLNWYQQKPGKAPKLLIYVASSLQSGVPSRFSGSGSGTEFTLTISSLQPEDFATYYCQQSYSGLDTFGRGTKVEIK
notes: IgG1
B2: 1245_P01_E07 (antibody, IgG1, V domains shown)
VH: B1 VH with E1Q, Q102A, E103D
VL: B1 VL with G94T, D96L
notes: also called ADT1-7; parental ADT1-7
B3: 1251_P02_C05 (antibody, IgG1, V domains shown)
VH: EVQLLESGGGLVQPGGSLRLSCAASGFTFSSYAMSWVRQAPGKGLEWVSAISGGGGTTYSSDSVKGRFTISRDNSKNTLYLQMNSLRAEDTAVYYCARDSGVAFDIWGQGTLVTVSS
VL: DIQMTQSPSFLSASVGDRVTITCRASQNIRTWLAWYQQKPGRAPKLLIYDASSLESGVPSRFSGSGSGTDFTLTISSLQPEDFATYYCQQFKRYPPTFGLGTKVEIK
notes: IgG1
B4: 1252_P01_C08 (antibody, IgG1, V domains shown)
VH: EVQLLESGGGLVQPGRSLRLSCAASGFTVSSNYMSWVRQAPGKGLEWVSVIYSGGSTYYADSVKGRFTISRDNSKNTLYLQMNSLRAEDTAVYYCASPIELGAFDIWGQGTLVTVSS
VL: SSYELTQPPSVSVAPGKTARITCGGNNIGSQSVHWYQQKPGQAPMLVIYYDSDRPSGIPERFSGSNSGNTATLTISRVEAGDEADYYCQVWDSSSDHVVFGGGTKLTVL
notes: IgG1, lambda light chain
B5: 1139_P01_E04 (antibody, IgG1, V domains shown)
VH: QVQLQQSGPGLVKPSQTLSLTCAISGDSVSSNSAAWNWIRQSPSRGLEWLGRTYYRSKWYNDYAVSVRSRITINPDTSKNQFSLQLNSVTPEDTAVYYCARSWNDAFDIWGQGTTVTVSS
VL: DIVMTQSPSTLSASIGDRVTITCRAGQSISTWLAWYQQKPGKAPKLLIYDASSLESGVPLRFSGSGSGTDFTLTISSLQPEDFATYYCQQSYSTPLTFGGGTKVEIK
notes: IgG1
B6: 1245_P02_F07 (antibody, IgG1, V domains shown)
VH: B5 VH with A23V, R68K, S102D, W103Y, N104Y, D105Y, A106S, F107M, I109V, T115M
VL: DIQMTQSPSTLSASVGDRVTITCRASQSISSWLAWYQQKPGKAPKLLIYDASSLESGVPLRFSGSGSGTEFTLTISSLQPDDFATYYCQQSHSHPPTFGPGTKVDIK
notes: IgG1
B7: 1245_P01_G09 (antibody, IgG1, V domains shown)
VH: QVQLQQSGPGLVKPSQTLSLTCAISGDSVSSNSAAWNWIRQSPSRGLEWLGRTYYGSKWYNEYALSVKSRIIINPDTSKNQFSLQLNSVTPEDTAVYYCARDYYYSMDVWGQGTLVTVSS
VL: B5 VL with D70E, T74A, E81D, L96V, G100Q
notes: IgG1
B8: 1251_P02_G10 (antibody, IgG1, V domains shown)
VH: B1 VH with K13Q, V99H, D100S, Y101W, Q102N, E103D, Q110R
VL: DIQMTQSPSSLSASVGDRVTITCRASQSISSHLNWYQQKPGKAPKLLIYAASSLQSGVPSRFSASGSGTDFTLTISSLQPEDFATYYCQQSYSTLLTFGGGTKVEIK
notes: IgG1
B9: 1245_P01_G06 (antibody, V domains shown)
VH: B1 VH with E1Q, V99H, D100S, Y101W, Q102N, E103D, I107V
VL: not shown
notes: IgG1
B10: 1138_P01_B09 (antibody, IgG1, V domains shown)
VH: B1 VH with V5L, V99H, D100S, Y101W, Q102S, E103D
VL: B8 VL with R24Q, S28D, S31N, H32Y, A50D, S53N, Q55E, S56T, A64G, L95P
notes: IgG1
B11: 1141_P01_E01 (antibody, IgG1, V domains shown)
VH: QVQLVQSGAEVKKPGESLKISCKGSGYSFTSYWIGWVRQMPGKGLEWMGIIYPGDSDTRYSPSFQGQVTISADKSISTAYLQWSSLKASDTAMYYCARHQVDTRTADYWGQGTLVTVSS
VL: SQSALTQPASVSGSPGQSVTISCTGTRSDVGGYNYVSWYQHHPGKAPKLMIYEVSNRPSGVSNRFSGSKSGNTASLTISGLQAEDEADYYCSSYTSTSTLVFGGGTKLTVL
notes: IgG1, lambda light chain
B12: ADT1-7-10 (antibody, IgG1, V domains shown)
VH: B1 VH with V99D, Q102N, E103D
VL: B1 VL with S91T, Y92A, G94T, D96L
notes: IgG1
B13: ADT1-7-23 (antibody, IgG1, V domains shown)
VH: B1 VH with Q102N
VL: B1 VL
notes: IgG1
B14: ADT1-7-17 (antibody, IgG1, V domains shown)
VH: B1 VH with V99I, Q102E, E103D
VL: B1 VL with Y92G, G94E, D96L
notes: IgG1
B15: ADT1-7-19 (antibody, IgG1, V domains shown)
VH: B1 VH with V99I, Q102E, E103D
VL: B1 VL with Y92A, G94E, D96L
notes: IgG1
B16: ADT1-7-15 (antibody, IgG1, V domains shown)
VH: B1 VH with V99D, Q102N, E103D
VL: B1 VL with Y92A, S93D, G94T, D96L
notes: IgG1
B17: ADT1-7-18 (antibody, IgG1, V domains shown)
VH: B1 VH with D100S, Q102D, E103D
VL: B1 VL with A25V, Y92A, G94E, D96L
notes: IgG1
B18: ADT1-7-22 (antibody, IgG1, V domains shown)
VH: B1 VH with V99D, Q102N, E103D
VL: B1 VL with Y92A, G94E, D96L
notes: IgG1
B19: ADT1-7-42 (antibody, IgG1, V domains shown)
VH: B1 VH with V99D, Q102E, E103D
VL: B1 VL with Y92S, G94E, D96L
notes: IgG1
B20: ADT1-4-86 (antibody, IgG1, V domains shown)
VH: EVQLQQSGPGLVKPSQTLSLTCAISGDSVSSKSVAWNWIRQSPSRGLEWLGRTYYRSKWSTDYAASVKSRITINPDTSKNQLSLQLNSVTPEDTAVYYCARTWLGNVDVWGQGTLVTVSS
VL: DIQMTQSPPALSASVGDRVTITCRASQDINDWLAWYQHKPGKAPKLLIYDASSLESGVPLRFSGSGSGTEFTLTISSLQPDDFATYYCQQKYSEPQVTFGQGTRLEIK

What follows are binders tested against T1, Vδ1 chain of the γδ TCR on human Vδ1 γδ T cells (human) (assay: flow cytometry binding to Vδ1 γδ T cells, donor ATS006; column head printed 'IC50', unit nM from the chart axis and FIG. 34D).
T1 construct: whole, on cells; also called cell surface Vδ1 TCR; Vδ1-positive γδ T cells
T1 sequence (A0A1B0GX56 22-115, stated change not applied): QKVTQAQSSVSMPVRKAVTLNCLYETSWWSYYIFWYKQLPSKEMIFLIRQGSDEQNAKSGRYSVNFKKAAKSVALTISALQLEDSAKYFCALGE
Experimental: (§1) All incubation steps were performed at 4° C. and mAb binding was determined using flow cytometry to measure the median level of fluorescence. Logarithmic four parameter dose-response curves were fitted using GraphPad Prism 9. […] For Vδ1-positive γδ T cell, data is represented as the mean two donors.
(§2) A range of target cells were assayed to determine the specificity and affinity of Vδ1 mAb binding. This included expanded skin-derived Vδ1 γδ T-cells, HEK293T cells, Raji cells, and multiple leukocyte subsets within human primary blood mononuclear cells. Adherent or semi-adherent cells (skin-derived Vδ1 γδ T-cells, HEK293T) were detached from tissue culture flask and resuspended in PBS. Similarly, non-adherent cell types (Raji, PBMC), were harvested and resuspended in PBS. Cells were seeded at a final density of 100,000 cells per well in v-bottom 96-well plates. Cells underwent centrifugation and the cell pellets were resuspended in FcR blocking reagent according to the manufacturer's instructions, and incubated for 20 minutes at 4C prior to a further wash. […] To determine the quantity of mAb bound to the cell surface, the cells were then stained with a murine anti-human IgG secondary antibody, conjugated to APC (dilution: 1:100). For Vδ1 γδ T-cells, HEK293T and Raji, the cells were also stained solely with a viability dye.

Row | EC50 | Binder
1 | 37.2 nM | B1
2 | > 100 nM | B2

What follows are binders tested against T1, Vδ1 chain of the γδ TCR on human Vδ1 γδ … (assay: cell-based or functional assay).

Row | IC50 TCR DR (no THP-1) | IC90 TCR DR (noTHP-1) | Binder
3 | 0.164 nM | 1.04 nM | B1
4 | 22.4 nM | 139 nM | B2

What follows are binders tested against T1, Vδ1 chain of the γδ TCR on human Vδ1 γδ … (assay: flow cytometry binding to Vδ1 γδ T cells, donor TS164; column head printed 'IC50', unit nM from the chart axis and FIG. 34D).
Experimental: as §1, §2

Row | EC50 | Binder
5 | 2.68 nM | B1
6 | 226 nM | B2

Each binder was assayed against T2, L1 (DV1-GV4), soluble human Vδ1/Vγ4 γδ TCR heterodimer in leucine zipper format (human) (assay: DELFIA, 100 nM biotinylated L1).
T2 construct: Biotinylated in the DELFIA ranking; also called Antigen L1 (TRDV1/TRGV4); human DV1-GV4; not shown: gamma chain: Vγ4 (TRGV4) domain on a TCR constant region, leucine zipper, histidine tag
T2 sequence (main, as listed by the source): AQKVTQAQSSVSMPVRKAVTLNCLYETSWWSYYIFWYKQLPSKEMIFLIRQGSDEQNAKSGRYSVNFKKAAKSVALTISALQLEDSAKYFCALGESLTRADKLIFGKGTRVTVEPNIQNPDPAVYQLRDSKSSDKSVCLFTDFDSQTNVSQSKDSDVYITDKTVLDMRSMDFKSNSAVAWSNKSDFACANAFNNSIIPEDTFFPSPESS

Row | DELFIA signal at 100 nM L1 | Binder
7 | 65300 fluorescence units | B3
8 | 1980 fluorescence units | B4
9 | 23800 fluorescence units | B5
10 | 10400 fluorescence units | B6
11 | 18400 fluorescence units | B7
12 | 17100 fluorescence units | B8
13 | 22500 fluorescence units | B9
14 | 163000 fluorescence units | B2
15 | 29200 fluorescence units | B10
16 | 137000 fluorescence units | B11

What follows are binders tested against T2, L1 (DV1-GV4), soluble human Vδ1/Vγ4 γδ … (assay: DELFIA ELISA, human antigen; heat map cell of the clone).

Row | ELISA signal (heat map) | Binder
17 | 30800 | B1
18 | 5470 | B2
19 | 30900 | B12
20 | 34400 | B13
21 | 30200 | B14
22 | 34700 | B15
23 | 30400 | B16
24 | 34800 | B17
25 | 27800 | B18
26 | 37600 | B19

Target: T1, Vδ1 chain of the γδ TCR on human Vδ1 γδ …
Assay: cell-based or functional assay
Remark: another data set of the same source

Row | TCR downregulation (EC50 µg/ml-3 donors) | Binder
27 | 0.849 µg/mL | B8

What follows are binders tested against T2, L1 (DV1-GV4), soluble human Vδ1/Vγ4 γδ … (assay: SPR (Reichert 4SPR), antibody on Protein A chip, human Vδ1 antigen as analyte; average of two replicates on two instruments).
Text: The binding affinity of the antibodies to target (i.e. the Vδ1 chain of a γδ TCR) is established by SPR analysis using a Reichert 4SPR instrument (Reichert Technologies).
The binding interaction of Vδ1 and the affinity-matured mAbs were modelled according to Langmuir 1:1 binding.

Row | Kd | Binder
28 | 4.99 nM | B1
29 | 38.1 nM | B2

Target: T1, Vδ1 chain of the γδ TCR on human Vδ1 γδ …
Assay: cell-based or functional assay
Remark: another data set of the same source

Row | IC90 TCR DR (noTHP-1) | Binder
30 | 1 nM | B20
